# Results from IntAct's records for PubMed 21321230.
# B1: Netrin receptor DCC (Rattus norvegicus (Rat)), Q63155 (parent)
# chain: MENSLGCVWVPKLAFVLFGASLLSAHLQVTGFQIKPFTSLHFVSEPSDAVTMRGGNVLLNCSAESDRGVPVIKWKKDGLILALGMDDRKQQLPNGSLLIQNILHSRHHKPDEGLYQCEASLGDSGSIISRTAKVMVAGPLRFLSQTESITAFMGDTVLLKCEVIGDPMPTIHWQKNQQDLNPIPGDSRVVVLPSGALQISRLQPGDSGVYRCSARNPASTRTGNEAEVRILSDPGLHRQLYFLQRPSNVIAIEGKDAVLECCVSGYPPPSFTWLRGEEVIQLRSKKYSLLGGSNLLISNVTDDDSGTYTCVVTYKNENISASAELTVLVPPWFLNHPSNLYAYESMDIEFECAVSGKPVPTVNWMKNGDVVIPSDYFQIVGGSNLRILGVVKSDEGFYQCVAENEAGNAQSSAQLIVPKPAIPSSSILPSAPRDVVPVLVSSRFVRLSWRPPAEAKGNIQTFTVFFSREGDNRERALNTTQPGSLQLTVGNLKPEAMYTFRVVAYNEWGPGESSQPIKVATQPELQVPGPVENLHAVSASPTSILITWEPPAYANGPVQGYRLFCTEVSTGKEQNIEVDGLSYKLEGLKKFTEYTLRFLAYNRYGPGVSTDDITVVTLSDVPSAPPQNVSLEVVNSRSIKVSWLPPPSGTQNGFITGYKIRHRKTTRRGEMETLEPNNLWYLFTGLEKGSQYSFQVSAMTVNGTGPPSNWYTAETPENDLDESQVPDQPSSLHVRPQTNCIIMSWTPPLNPNIVVRGYIIGYGVGSPYAETVRVDSKQRYYSIERLESSSHYVISLKAFNNAGEGVPLYESATTRSITDPTDPVDYYPLLDDFPTSGPDVSTPMLPPVGVQAVALTHEAVRVSWADNSVPKNQKTSDVRLYTVRWRTSFSASAKYKSEDTTSLSYTATGLKPNTMYEFSVMVTKNRRSSTWSMTAHATTYEAAPTSAPKDLTVITREGKPRAVIVSWQPPLEANGKITAYILFYTLDKNIPIDDWIMETISGDRLTHQIMDLSLDTMYYFRIQARNAKGVGPLSDPILFRTLKVEHPDKMANDQGRHGDGGYWPVDTNLIDRSTLNEPPIGQMHPPHGSVTPQKNSNLLVITVVTVGVLTVLVVVIVAVICTRRSSAQQRKKRATHSASKRKGSQKDLRPPDLWIHHEEMEMKNIEKPAGTDPAGRGSPIQSCQDLTPVSHSQSESQMGSKSASHSGQDTEEAGSSMSTLERSLAARRATRTKLMIPMEAQSNNPAVVSAIPVPTLESAQYPGILPSPTCGYPHPQFTLRPVPFPTLSVDRGFGAGRTVSEGPTAQQQPMLPPAQPEHPSSEEAPSRTIPTACVRPTHPLRSFANPLLPPPMSAIEPKVPYTPLLSQPGPTLPKTHVKTASLGLAGKARSPLLPVSVPTAPEVSEESHKPTEDPASVYEQDDLSEQMASLEGLMKQLNAITGSAF
# Variants of: B1
# Conditions: with myo10_human MYO10, Q9HD67
# Chain of myo10_human MYO10, Q9HD67 (Q9HD67 whole entry): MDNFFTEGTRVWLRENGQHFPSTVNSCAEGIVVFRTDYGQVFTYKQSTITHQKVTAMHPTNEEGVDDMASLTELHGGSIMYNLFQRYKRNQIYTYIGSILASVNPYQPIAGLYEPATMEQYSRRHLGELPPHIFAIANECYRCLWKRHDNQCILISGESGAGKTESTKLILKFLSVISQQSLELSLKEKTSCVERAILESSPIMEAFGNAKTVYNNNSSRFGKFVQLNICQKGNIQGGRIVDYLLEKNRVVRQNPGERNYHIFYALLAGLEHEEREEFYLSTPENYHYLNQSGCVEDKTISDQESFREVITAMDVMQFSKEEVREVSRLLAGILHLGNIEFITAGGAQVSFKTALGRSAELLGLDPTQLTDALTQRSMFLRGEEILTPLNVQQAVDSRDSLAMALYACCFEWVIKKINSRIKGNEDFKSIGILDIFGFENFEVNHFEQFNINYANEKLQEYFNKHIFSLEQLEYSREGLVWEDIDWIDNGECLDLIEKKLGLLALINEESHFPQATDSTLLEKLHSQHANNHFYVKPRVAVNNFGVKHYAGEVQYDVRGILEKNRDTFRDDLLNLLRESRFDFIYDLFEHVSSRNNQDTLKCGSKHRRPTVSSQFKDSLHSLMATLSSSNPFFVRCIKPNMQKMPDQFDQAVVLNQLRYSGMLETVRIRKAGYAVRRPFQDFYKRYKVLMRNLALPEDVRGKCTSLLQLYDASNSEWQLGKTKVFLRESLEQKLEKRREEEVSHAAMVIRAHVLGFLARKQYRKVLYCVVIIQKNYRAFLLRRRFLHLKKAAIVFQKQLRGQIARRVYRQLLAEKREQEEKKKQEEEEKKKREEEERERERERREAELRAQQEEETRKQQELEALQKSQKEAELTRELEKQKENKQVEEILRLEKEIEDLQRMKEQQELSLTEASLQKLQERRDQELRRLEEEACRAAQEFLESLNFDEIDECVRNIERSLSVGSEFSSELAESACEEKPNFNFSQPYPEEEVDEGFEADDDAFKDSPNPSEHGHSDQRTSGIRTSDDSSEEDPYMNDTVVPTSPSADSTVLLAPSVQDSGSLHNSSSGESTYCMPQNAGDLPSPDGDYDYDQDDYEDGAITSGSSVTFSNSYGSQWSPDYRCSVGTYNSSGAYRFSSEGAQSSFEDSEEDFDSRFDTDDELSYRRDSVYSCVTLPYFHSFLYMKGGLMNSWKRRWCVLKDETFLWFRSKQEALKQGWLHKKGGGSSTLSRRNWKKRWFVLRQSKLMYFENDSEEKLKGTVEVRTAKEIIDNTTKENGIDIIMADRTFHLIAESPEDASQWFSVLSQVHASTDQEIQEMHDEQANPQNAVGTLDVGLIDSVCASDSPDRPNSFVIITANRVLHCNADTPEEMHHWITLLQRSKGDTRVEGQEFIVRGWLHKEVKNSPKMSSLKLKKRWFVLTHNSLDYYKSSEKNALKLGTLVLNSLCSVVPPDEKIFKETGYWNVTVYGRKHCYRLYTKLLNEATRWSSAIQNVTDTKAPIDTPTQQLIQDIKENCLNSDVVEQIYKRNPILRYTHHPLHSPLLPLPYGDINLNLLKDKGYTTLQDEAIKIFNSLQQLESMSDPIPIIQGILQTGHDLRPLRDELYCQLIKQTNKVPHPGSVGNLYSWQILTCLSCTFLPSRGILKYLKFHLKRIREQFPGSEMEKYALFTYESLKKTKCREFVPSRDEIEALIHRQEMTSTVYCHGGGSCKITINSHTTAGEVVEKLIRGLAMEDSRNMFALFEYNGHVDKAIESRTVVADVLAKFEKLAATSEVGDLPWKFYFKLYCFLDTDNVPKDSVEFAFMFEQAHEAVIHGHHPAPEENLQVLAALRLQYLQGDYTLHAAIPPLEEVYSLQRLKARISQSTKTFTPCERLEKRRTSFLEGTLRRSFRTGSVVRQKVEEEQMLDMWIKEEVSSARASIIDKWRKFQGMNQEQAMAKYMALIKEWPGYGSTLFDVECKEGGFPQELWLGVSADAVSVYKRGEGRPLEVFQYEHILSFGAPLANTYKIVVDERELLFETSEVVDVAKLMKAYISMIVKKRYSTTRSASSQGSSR
row,effect of a mutation on the interaction,Variant
1,disrupting interaction strength,L1437A
2,disrupting interaction strength,L1433A
